According to patent US20250270737A1, “Antibodies That Bind GLP1R” (Twist Bioscience Corporation, priority 2019, published 2025):
Where two headings read alike, the source gives them in different places.

B1: GLP1R-3: GLP1R antagonist IgG, CDR-H3 SEQ ID NO 2279, heavy chain SEQ ID NO 2320 (antibody)
heavy: QVQLVESGGGVVQPGRSLRLSCAASGFTFSSYGMHWVRQAPGKGLEWVSFISYDESNKYYADSVKGRFTISRDNSKNTLYLQMNSLRAEDTAVYYCAKHMSMQEGAVTGEGQAAKEFIAWLVKGRVRADLVGDAFDVWGQGTLVTVSSASTKGPSVFPLAPCSRSTSESTAALGCLVKDYFPEPVTVSWNSGALTSGVHTFPAVLQSSGLYSLSSVVTVPSSNFGTQTYTCNVDHKPSNTKVDKTVERKCCVECPPCPAPPVAGPSVFLFPPKPKDTLMISRTPEVTCVVVDVSHEDPEVQFNWYVDGVEVHNAKTKPREEQFNSTFRVVSVLTVVHQDWLNGKEYKCKVSNKGLPAPIEKTISKTKGQPREPQVYTLPPSREEMTKNQVSLTCLVKGFYPSDIAVEWESNGQPENNYKTTPPMLDSDGSFFLYSKLTVDKSRWQQGNVFSCSVMHEALHNHYTQKSLSLSPGK
light: QSVLTQPPSVSAAPGQKVTISCSGSSSNIADNYVSWYQQLPGTAPKLLIYDNNKRPSGIPDRFSGSKSGTSATLGITGLQTGDEADYYCGTWDNYLGAGVFGGGTKLTVLGQPKAAPSVTLFPPSSEELQANKATLVCLISDFYPGAVTVAWKADSSPVKAGVETTTPSKQSNNKYAASSYLSLTPEQWKSHRSYSCQVTHEGSTVEKTVAPTECS
B2: GLP1R-238: GLP1R scFv clone reformatted to IgG2; CDR-H3 SEQ ID NO 2296, heavy 2303, light 2310 (antibody)
heavy: MEWSWVFLFFLSVTTGVHSQVQLVQSGAEVKKPGSSVKVSCKASGGSFSSHAISWVRQAPGQGLEWMGGIIPIFGAPNYAQKFQGRVTITADESTSTAYMELSSLRSEDTAVYYCARANQHFSQAGRAARVPGPSSSLGPRGYHYYGMDVWGQGTLVTVSSASASTKGPSVFPLAPCSRSTSESTAALGCLVKDYFPEPVTVSWNSGALTSGVHTFPAVLQSSGLYSLSSVVTVPSSNFGTQTYTCNVDHKPSNTKVDKTVERKCCVECPPCPAPPVAGPSVFLFPPKPKDTLMISRTPEVTCVVVDVSHEDPEVQFNWYVDGVEVHNAKTKPREEQFNSTFRVVSVLTVVHQDWLNGKEYKCKVSNKGLPAPIEKTISKTKGQPREPQVYTLPPSREEMTKNQVSLTCLVKGFYPSDIAVEWESNGQPENNYKTTPPMLDSDGSFFLYSKLTVDKSRWQQGNVFSCSVMHEALHNHYTQKSLSLSPG
light: MSVPTQVLGLLLLWLTDARCQSVLTQPPSVSAAPGQKVTISCSGSTSNIANNYVSWYQQLPGTAPKLLIYANNRRPSGIPDRFSGSKSGTSATLGITGLQTGDEADYYCGAWDVRLDVGVFGGGTKLTVLGQPKAAPSVTLFPPSSEELQANKATLVCLISDFYPGAVTVAWKADSSPVKAGVETTTPSKQSNNKYAASSYLS

Columns and labels:
C57BL/6NHsd Mice = test: Glucose Tolerance Test (GTT) in wild-type mice; format: in vivo, mouse; conditions: control mice exhibited a decrease; FIG. 25D
Protocol: 15 C57BL/6NHsd Mice were used and subjected to a Glucose Tolerance Test (GTT). The in vivo GTT test was performed on three groups of mice with 5 mice per group. […] Blood glucose measurements were recorded for each mouse at 15, 30, 60, 120, and 180 minutes after dextrose injection. […] A third group of mice were the control mice and were not treated. Data is seen for GLP1R-59-2 (agonist), GLP1R-3 (antagonist), and control in FIGS. 25A-25D.

GLP1R [1] = biological target: T1, GLP1R (Homo sapiens, UniProt P43220); test: Binding on human GLP1R; conditions: IgG at 100 nM (GLP1R-59-243 at 50 nM); data not shown
Protocol: (§1) Binding of GLP1R-3, GLP1R-59-242, and GLPTR-43-8 on mouse, macaca, and human GLP1R was determined. […] Binding of GLP1R-59-2, GLP1R-59-241, and GLPTR-59-243 on mouse, macaca, and human GLP1R was determined.

GLP2R = biological target: T2, GLP2R (Homo sapiens, UniProt O95838); test: Specificity of GLP1R versus GLP2R binding; conditions: data not shown
T2 sequence (O95838 1-553): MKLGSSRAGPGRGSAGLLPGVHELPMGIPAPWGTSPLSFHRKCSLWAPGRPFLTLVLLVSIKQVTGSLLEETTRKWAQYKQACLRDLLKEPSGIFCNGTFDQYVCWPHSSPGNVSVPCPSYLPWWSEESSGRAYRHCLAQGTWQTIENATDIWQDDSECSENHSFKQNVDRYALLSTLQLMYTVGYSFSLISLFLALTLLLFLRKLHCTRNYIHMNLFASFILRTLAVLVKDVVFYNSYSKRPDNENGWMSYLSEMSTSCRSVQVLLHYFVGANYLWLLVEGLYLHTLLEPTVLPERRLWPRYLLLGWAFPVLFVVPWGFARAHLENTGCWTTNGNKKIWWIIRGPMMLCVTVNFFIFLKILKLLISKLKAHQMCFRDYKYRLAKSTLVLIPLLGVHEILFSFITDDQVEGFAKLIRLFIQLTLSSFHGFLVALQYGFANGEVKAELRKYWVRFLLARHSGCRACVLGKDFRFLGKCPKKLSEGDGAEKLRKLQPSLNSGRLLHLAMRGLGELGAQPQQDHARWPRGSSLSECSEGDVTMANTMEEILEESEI

[2] = test system: human pancreatic precursor cells expressing endogenous GLP1R; test: Binding to human pancreatic precursor cells expressing endogenous GLP1R
Protocol: as §1

C57BL/6J DIO mice = test: Oral glucose tolerance test in mouse model of diet induced obesity; format: in vivo; conditions: HFD, 10 mg/kg SC, 2 g/kg oral glucose 60 minutes later, FIGS. 24C-24D
Protocol: The objective of this study was to evaluate the acute effects of a chimeric antibody GLP1R agonist and antagonist on glycemic control in a mouse model of diet induced obesity in C57BL/6J DIO mice. The test articles are seen below in Table 25.
For each test article, 7 different test article groups were generated as summarized in the following Table 26 with 8 animals per group.
On Day 3 (all animals) and Day 1 (Group 1-7), a non-fasting blood glucose was determined by tail snip. Approximately 5-10 μL of blood was collected. The second drop of blood from the animal was placed on a blood glucose test strip and analyzed using a hand-held glucometer (Abbott Alpha Trak).
After a non-fasting blood glucose measurement was made on the day of the procedure, the animals were weighed, tails marked, and the animals placed in clean cages without food. The animals were fasted for 4 hours and a fasting blood glucose measurement was determined.
The oral glucose tolerance test (OGTT) was administered to each animal 60 minutes later. The animals were dosed via oral gavage with 2 g/kg glucose (10 mL/kg). Blood glucose was determined via tail snip with the second drop of blood from the animal placed on a hand-held glucometer (Abbott Alpha Trak) at the following times relative to the glucose dose: 0 (just prior to glucose dose), 15, 30, 60, 90, and 120 minutes. […]

mouse GLP1R = biological target: T3, mouse GLP1R (Mus musculus, UniProt O35659); test: Binding on mouse GLP1R; conditions: IgG at 100 nM (GLP1R-59-243 at 50 nM); data not shown
T3 sequence (O35659 22-463): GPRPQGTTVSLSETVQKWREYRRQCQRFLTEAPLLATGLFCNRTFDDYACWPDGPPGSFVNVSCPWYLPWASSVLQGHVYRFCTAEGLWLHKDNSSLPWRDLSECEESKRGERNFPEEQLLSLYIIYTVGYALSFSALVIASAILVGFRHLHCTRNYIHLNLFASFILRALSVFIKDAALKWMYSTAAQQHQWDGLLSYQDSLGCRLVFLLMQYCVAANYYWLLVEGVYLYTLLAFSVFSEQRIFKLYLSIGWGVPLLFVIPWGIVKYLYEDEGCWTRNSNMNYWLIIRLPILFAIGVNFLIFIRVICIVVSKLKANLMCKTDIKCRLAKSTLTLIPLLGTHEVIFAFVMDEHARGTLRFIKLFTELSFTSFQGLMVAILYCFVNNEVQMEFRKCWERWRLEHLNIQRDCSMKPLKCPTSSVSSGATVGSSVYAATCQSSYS
Protocol: as §1

GLP1R [3] = biological target: T1, GLP1R; test: cAMP assay, allosteric/antagonist effects on Exendin-4 peptide induced cAMP activity (Example 10); format: cell-based
[4] = Thermal ramp stability (Tm and Tagg), UNcle platform; format: physicochemical
Excerpt: The GLP1R IgGs were characterized for thermal ramp stability (Tm and Tagg). The UNcle platform was used to characterize the IgGs and the data is seen in Table 21.

macaca GLP1R = test: Binding on macaca GLP1R; conditions: IgG at 100 nM (GLP1R-59-243 at 50 nM); data not shown
Protocol: as §1

GLP1R [5] = biological target: T1, GLP1R; test: cAMP assay, allosteric effects on GLP1-7-36 peptide induced cAMP activity (Example 10); format: cell-based; conditions: FIGS. 10B-10J
Protocol: Cell binding was determined for the GLP1R variants. […] GLP1R-3, GLP1R-8, GLP1R-26, GLP1R-56, GLP1R-58 and GLP1R-10 were then analyzed for allosteric effects on GLP1-7-36 peptide in a cAMP assay. FIGS. […] show graphs of the GLP1R variants on inhibition of GLP1-7-36 peptide induced cAMP activity.

GLP1R [6] = biological target: T1, GLP1R
Protocol: All GLP1R scFv clones, as well as pGPCR-GLP1R-43 and pGPCR-GLP1R-44, were assayed for their potential effects on GLP1R signaling by performing cAMP assays (Eurofins DiscoverX Corporation). These assays involve CHO cells that were engineered to overexpress naturally Gαs-coupled wildtype GLP1R and were designed to detect changes in intracellular cAMP levels in response to agonist stimulation of the receptor. The technology involved in detecting cAMP levels was a no wash gain-of-signal competitive immunoassay based on Enzyme Fragment Complementation technology and produced a luminescent signal that was directly proportional to the amount of cAMP in the cells. Experiments were designed to determine agonist or allosteric activity of the IgGs.

GLP1R [7] = biological target: T1, GLP1R; test: Binding assay with flow cytometry on flag-GLP1R-GFP expressing CHO cells (CHO-GLP1R); conditions: 100 nM IgG
Protocol: (§2) Briefly, flag-GLP1R-GFP expressing CHO cells (CHO-GLP1R) and CHO-parent cells were incubated with 100 nM IgG for 1 hour on ice, washed three times and incubated with Alexa 647 conjugated goat-anti-human antibody (1:200) for 30 minutes on ice, followed by three washes. All incubations and washes were performed in buffer containing PBS and 0.5% BSA. For titrations, IgG was serially diluted 1:3 starting from 100 nM. […] Analyses of binding assays with IgG titrations presented as binding curves plotting IgG concentrations against MFI (mean fluorescence intensity) are seen in FIGS. 15A-15H. Flow cytometry data of binding assays presented as dot plots with 100 nM IgG are seen in FIGS. 16A-16I.
(§3) The GLP1R IgGs were then assayed in binding assays coupled to flow cytometry analysis using similar methods as described in Example 12. Briefly, stably expressing Flag-GLP1R-GFP CHO cells or CHO-parent cells were incubated with primary IgG (100 nM or 1:3 titrations). Secondary antibody incubation involved Alexa 647 conjugated goat-anti-human IgG. Flow cytometry measured the GFP signal against the Alexa 647 signal to identify IgGs that specifically bound to the target (GLP1R).

CHO-parent cells = test: Binding assay with flow cytometry on CHO-parent cells; conditions: 100 nM IgG
Protocol: as §2, §3

T1 sequence (P43220 24-463): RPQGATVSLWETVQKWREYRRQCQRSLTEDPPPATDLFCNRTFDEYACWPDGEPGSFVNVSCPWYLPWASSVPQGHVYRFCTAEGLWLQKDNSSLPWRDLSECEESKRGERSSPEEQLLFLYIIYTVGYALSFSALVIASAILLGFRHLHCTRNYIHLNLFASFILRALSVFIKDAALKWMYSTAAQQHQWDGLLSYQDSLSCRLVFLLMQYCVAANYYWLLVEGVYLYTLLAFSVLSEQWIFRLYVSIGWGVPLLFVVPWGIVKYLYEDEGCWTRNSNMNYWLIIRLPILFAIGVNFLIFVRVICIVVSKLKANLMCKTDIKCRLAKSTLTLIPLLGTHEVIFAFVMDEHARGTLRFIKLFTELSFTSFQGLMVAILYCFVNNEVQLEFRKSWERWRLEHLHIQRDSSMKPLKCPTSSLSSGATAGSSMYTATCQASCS

Molecule | change of glucose in a 6 hour fast, pre-dosed animals (C57BL/6NHsd Mice) | binding on human GLP1R (GLP1R [1]) | specificity of GLP1R versus GLP2R binding (GLP2R) | binding to human pancreatic precursor cells expressing endogenous GLP1R [2] | glucose levels after glucose administration (OGTT) (C57BL/6J DIO mice) | binding on mouse GLP1R (mouse GLP1R) | EC50 (GLP1R [3]; EC50 of Exendin-4 induced cAMP in the presence of the GLP1R variant) [nM] | fold-diff (GLP1R [3]; fold difference of Exendin-4 EC50 with variant versus Exendin-4 alone) | Average Tagg 266 [4] [°C] | Average Tm2 [4] [°C] | Average Tml [4] [°C] | binding on macaca GLP1R (macaca GLP1R) | allosteric inhibition of GLP1-7-36 peptide induced cAMP activity (GLP1R [5]) | EC50 (GLP1R [6]; EC50 of GLP1 (7-36) cAMP response with GLP1R IgG (+100 nM)) [nM] | fold difference of EC50 (GLP1R [6]; EC50 with 100 nM IgG versus no antibody (Table 23)) [fold] | inhibition of GLP1:GLP1R signaling (GLP1R [6]; GLP1 (7-36) titration versus no antibody, FIG. 24A) | inhibition at higher concentrations (GLP1R [6]; following stimulation with 0.05 nM GLP1 (7-36), FIG. 24B) | binding to CHO-GLP1R (GLP1R [7]) | binding to CHO-parent cells versus CHO-GLP1R (specificity) (CHO-parent cells)
B1 | did not show decreased glucose | found to bind | specific for GLP1R over GLP2R | found to bound | sustained high glucose levels | found to bind | 0.63 | 5.4 | 68.4 | 73.5 | 66.7 | found to bind | allosteric inhibition | 1.31 | 2.2 | inhibits GLP1:GLP1R signaling | complete inhibition | – | –
B2 | – | – | – | – | – | – | – | – | – | – | – | – | – | – | – | – | – | found to bind to CHO-GLP1R | bound equally to CHO-GLP1R and CHO-parent cells
